Experimental data reported in patent US20220242973A1 (Molecular Partners, published 2022).
Values belong to the binder of their own block, whether it stands above or below them.

Assays:
[1] = biological target: T1, Human FAP expressed on the cell surface (WI38, CHO-FAP1.9, U87MG cells) (human, UniProt Q12884 1-760); experiment: FACS on FAP-expressing WI38 cells, Penta-His AF647 detection
T1 construct: whole, on cells; Endogenous on WI38 and U87MG cells; from a human FAP cDNA (OriGene) in CHO-FAP1.9 cells; also called hFAP; FAP+ cells
T1 sequence (looked up): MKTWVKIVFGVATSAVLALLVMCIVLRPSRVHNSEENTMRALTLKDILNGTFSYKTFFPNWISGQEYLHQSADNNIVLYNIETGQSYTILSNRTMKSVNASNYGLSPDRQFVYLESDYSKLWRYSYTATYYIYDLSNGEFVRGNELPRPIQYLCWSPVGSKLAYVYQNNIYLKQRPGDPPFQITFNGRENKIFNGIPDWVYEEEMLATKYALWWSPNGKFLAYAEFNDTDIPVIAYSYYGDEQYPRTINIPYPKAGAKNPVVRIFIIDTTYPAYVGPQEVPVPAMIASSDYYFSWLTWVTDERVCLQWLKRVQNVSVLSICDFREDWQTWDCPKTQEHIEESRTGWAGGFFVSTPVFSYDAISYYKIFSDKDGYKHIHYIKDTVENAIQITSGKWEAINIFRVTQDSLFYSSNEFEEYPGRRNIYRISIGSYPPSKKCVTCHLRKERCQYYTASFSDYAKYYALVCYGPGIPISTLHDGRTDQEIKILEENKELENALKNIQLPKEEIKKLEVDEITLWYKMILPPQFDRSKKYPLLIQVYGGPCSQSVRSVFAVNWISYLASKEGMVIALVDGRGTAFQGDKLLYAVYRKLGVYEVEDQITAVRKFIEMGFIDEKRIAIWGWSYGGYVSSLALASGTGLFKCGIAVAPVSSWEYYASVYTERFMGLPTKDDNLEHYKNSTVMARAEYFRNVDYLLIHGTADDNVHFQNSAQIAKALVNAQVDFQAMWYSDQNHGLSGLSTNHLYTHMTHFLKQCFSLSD
Description: (§1) Using multi-well plates, 20,000 WI38 cells were added per well in 50 μl of PBS. 50 μl of appropriate dilutions (2× dilution steps) of ankyrin repeat protein was then added to the cells and incubated for 30 minutes on ice. After the ankyrin repeat protein-binding reaction, cells were washed twice with PBS. Direct immunofluorescent detection of the His-tagged ankyrin repeat proteins using Penta-His AF647 conjugate (QIAgen) and determination of live cells using LIVE/DEAD™ Fixable Green Dead Cell Stain Kit (ThermoFisher) were then performed together in one step. The Penta-His AF647 conjugate and the LIVE/DEAD™ Fixable Green dye were applied to the cells together in 1/200 (Penta-His) and 1/1000 (LID Fixable) final dilutions and incubated for 20-30 minutes on ice. After washing the cells with PBS, cells were re-suspended in 1× CellFix™ buffer (BD Biosciences) (10× stock was diluted 1/10 in water). The samples were incubated in CellFix™ buffer for 15-20 minutes at RT, then spun down at 400 g for 5 min. Supernatant was discarded and cells were re-suspended in 200 μl PBS and stored at 4° C. until acquisition and FACS analysis. Acquisition and FACS analysis, including the determination of median fluorescence intensity (MFI), were done within 5 days after staining using an AttuneNxT instrument. Binding curves were fitted by non-linear regression curve fitting using GraphPad Prism software (v 7.0.4).
EC₅₀ values were determined using standard procedures known to the person skilled in the art. […] Table 2 provides the EC₅₀ values of selected ankyrin repeat proteins as examples.

[2] = biological target: T2, Recombinant human FAP (fibroblast activation protein) (human, UniProt Q12884 26-760); experiment: cell-based or functional assay
T2 sequence (looked up): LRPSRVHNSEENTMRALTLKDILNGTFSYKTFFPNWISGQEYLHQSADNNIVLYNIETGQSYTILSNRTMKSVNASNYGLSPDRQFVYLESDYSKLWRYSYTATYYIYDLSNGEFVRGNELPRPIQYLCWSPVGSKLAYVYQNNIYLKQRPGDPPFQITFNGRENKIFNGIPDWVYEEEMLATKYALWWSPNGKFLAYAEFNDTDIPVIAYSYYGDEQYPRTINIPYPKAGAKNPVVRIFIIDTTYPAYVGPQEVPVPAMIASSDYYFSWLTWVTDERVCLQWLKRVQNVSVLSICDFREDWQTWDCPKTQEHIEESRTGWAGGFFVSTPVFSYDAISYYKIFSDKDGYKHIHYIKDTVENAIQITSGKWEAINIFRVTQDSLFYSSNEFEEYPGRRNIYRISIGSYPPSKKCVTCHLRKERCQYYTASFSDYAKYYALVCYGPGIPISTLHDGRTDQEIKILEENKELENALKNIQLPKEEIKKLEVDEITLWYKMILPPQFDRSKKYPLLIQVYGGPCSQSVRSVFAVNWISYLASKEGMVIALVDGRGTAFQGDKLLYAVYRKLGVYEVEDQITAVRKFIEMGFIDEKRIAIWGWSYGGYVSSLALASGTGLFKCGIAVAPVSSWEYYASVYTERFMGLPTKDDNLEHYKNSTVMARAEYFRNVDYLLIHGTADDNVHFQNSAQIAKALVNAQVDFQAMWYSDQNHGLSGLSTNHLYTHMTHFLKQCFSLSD

[3] = biological target: T2, Recombinant human FAP (fibroblast …); experiment: SPR (ProteOn), human FAP immobilized on GLC chip
Description: Briefly, human FAP was diluted in 10 mM Na-acetate pH 5.3 buffer and covalently immobilized on a GLC chip (BioRad) to a level of around 2000 resonance units (RU). The interaction of ankyrin repeat protein and hFAP was then measured by injecting 200 μl running buffer (PBS, pH 7.4 containing 0.005% Tween 20®) containing serial dilutions of ankyrin repeat proteins covering a concentration range between 30 nM and 0.5 nM (on-rate measurement), followed by a running buffer flow for at least 25 minutes at a constant flow rate of 100 μl/min (off-rate measurement). The regeneration was performed using 15 μl of 10 mM Glycine pH 2 followed by 15 μl of 124 mM H₃PO₄. The signals (i.e. resonance unit (RU) values) of the interspots and a reference injection (i.e. injection of running buffer only) were subtracted from the RU traces obtained after injection of ankyrin repeat protein (double-referencing). Based on the SPR traces obtained from the on-rate and off-rate measurements, the on- and off-rate of the corresponding ankyrin repeat protein—FAP interaction was determined.
Dissociation constants (KD) were calculated from the estimated on- and off-rates using standard procedures known to the person skilled in the art. […] Table 1 provides the KD values of some selected ankyrin repeat proteins as examples.

[4] = biological target: T3, Cynomolgus FAP expressed on CHO cells (cynomolgus monkey (Macaca fascicularis)); experiment: FACS on cFAP-expressing CHO cells
T3 construct: whole, on cells; also called cFAP-expressing CHO cells; cynomolgus FAP+ CHO cells
Description: as §1
A series of dilutions of ankyrin repeat proteins were added to cFAP expressing CHO cells. The binding reaction and subsequent analysis and MFI measurements were performed essentially as described in Example 3 for the WI38 cells.

EC50 [1]: 5.72 nM
FAP activity (%) [2]: 116%
Kd [3]: 5.43 nM
B1: DARPin® protein #3 (designed binder)
chain: MRGSHHHHHHGSYPYDVPDYAGSDMGKKLLEAARAGQDDEVRILMANGADVNAFDQVGRTPLHLDALAGHLEIVEVLLKHGADVNAADMFGITPLHLAAFIGHLEIVEVLLKHGADVNAYDLDGRTPLHPAAYHGHLEIVEVLLKNGADVNAQDKFGKTAFDISIDNGNEDLAEILQKLN

EC50 [1]: 0.205 nM
FAP activity (%) [2]: 102%
EC50 [4]: 7.9 nM
Kd [3]: 0.241 nM
B2: DARPin® protein #33 (designed binder)
chain: MRGSHHHHHHGSYPYDVPDYAGSDLGKKLLEAARAGQDDEVRELLKAGADVNAKDEWGKTPLHLAAIRGHLEIVEVLLKAGADVNAKDTHGITPLHLAAFVGHLEIVEVLLKAGADVNAKDYLGRTPLHIAAAKGHLEIVEVLLKAGADVNAQDKSGKTPADLAADAGHEDIVEVLQKLN

EC50 [1]: 1.13 nM
FAP activity (%) [2]: 109%
Kd [3]: 0.255 nM
B3: DARPin® protein #29 (designed binder)
chain: MRGSHHHHHHGSYPYDVPDYAGSDLGKKLLEAARAGQDDEVRELLKAGADVNAKDTIGRTPLHIAARYGHLEIVEVLLKAGADVNAKDVYDITPLHLAAFLGHLEIVEVLLKAGADVNAKDYEGTTPLHVAAWHGHLEIVEVLLKAGADVNAQDKSGKTPADLAADAGHEDIAEVLQKLN

EC50 [1]: 0.15 nM
FAP activity (%) [2]: 106%
EC50 [4]: 6.1 nM
Kd [3]: 0.053 nM
B4: DARPin® protein #26 (designed binder)
chain: MRGSHHHHHHGSYPYDVPDYAGSDLGKKLLEAARAGQDDEVRELLKAGADVNAKDEVGRTPLHLAAQIGHLEIVEVLLKAGADVNAKNRWGVTPLHVAAWVGHLEIVEVLLKAGADVNAKDQQGATPLHLAAIRGHLEIVEVLLKAGADVNAQDKSGKTPADLAADAGHEDIAEVLQKLN

EC50 [1]: 0.308 nM
FAP activity (%) [2]: 94%
EC50 [4]: 4.1 nM
Kd [3]: 0.195 nM
B5: DARPin® protein #19 (designed binder)
chain: MRGSHHHHHHGSYPYDVPDYAGSDLGEKLLVAALYGQDDEVRILLAAGADVNAKDQWGLTPLHKAALQGHLEIVEVLLKAGADVNAKDERGHTPLHWAARFGHLEIVEVLLKAGADVNAQDQKGYTPADLAALWGHEDIAEVLQKLN

EC50 [1]: 0.276 nM
FAP activity (%) [2]: 115%
Kd [3]: 0.186 nM
B6: DARPin® protein #9 (designed binder)
chain: MRGSHHHHHHGSYPYDVPDYAGSDLGKKLLEAARAGQDDEVRILMANGADVNAFDTTGRTPLHLAALWGHLEIVEVLLKHGADVNASDWFSITPLHLAAFMGHLEIVEVLLNHGADVNAQDKFGKTAFDISIDHGNEDLAEILQKLN

EC50 [1]: 0.188 nM
FAP activity (%) [2]: 112%
EC50 [4]: 5.6 nM
Kd [3]: 0.115 nM
B7: DARPin® protein #18 (designed binder)
chain: MRGSHHHHHHGSYPYDVPDYAGSDLGKKLLEAARAGQDDEVRILLAAGADVNAKDVLGWTPLHLAAFEGHLEIVEVLLKAGADVNAKDKKGWTPLQLAARTGHLEIVEVLLKAGADVNAKDHIGATPLHLAAWQGHPEIVEVLLKAGADVNAQDKSGKTPADLAADAGHEDIAEVLQKLN

EC50 [1]: 1.09 nM
FAP activity (%) [2]: 111%
Kd [3]: 1.35 nM
B8: DARPin® protein #4 (designed binder)
chain: MRGSHHHHHHGSYPYDVPDYAGSDLGHKLLEAATQGQDDEVRILLAAGADVNAKDEHGKTPLHLAAKKGHLEIVEVLLKAGADVNAKDDWGVTPLHLAAYWGHLEIVEVLLKAGADVNAQDNDGYTPADLAATFGHEDIAEVLQKLN

EC50 [1]: 0.781 nM
FAP activity (%) [2]: 103%
Kd [3]: 0.15 nM
B9: DARPin® protein #28 (designed binder)
chain: MRGSHHHHHHGSYPYDVPDYAGSDLGKKLLEAARAGQDDEVRELLKAGADVNAKDEWGKTPLHYAAALGHLEIVEVLLKAGADVNAKDRWGATPLHIAAFAGHLEIVEVLLKAGADVNAKDEVGWTPLHLAARSGHLEIVEVLLKVGADVNAQDKSGKTPADLAADAGHEDIVEVLQKLN

EC50 [1]: 0.918 nM
FAP activity (%) [2]: 138%
Kd [3]: 0.527 nM
B10: DARPin® protein #32 (designed binder)
chain: MRGSHHHHHHGSYPYDVPDYAGSDLGKKLLEAARAGQDDEVRELLKAGADVNAKDEWDKTPLHLAAALDHLEIVEVLLKAGADVNAKDQYGATPLHVAAFAGHLEIVEVLLKAGADVNAKDLFGWTPLHLAALRGHLEIVEVLLKAGADVNAQDKSGKTPADLAADAGHEDIVEVLQKLN

EC50 [1]: 0.65 nM
FAP activity (%) [2]: 101%
Kd [3]: 7.02 nM
B11: DARPin® protein #30 (designed binder)
chain: MRGSHHHHHHGSYPYDVPDYAGSDMGKKLLEAARAGQDDEVRELLKAGADVNAKDEWGWTPLHVAAERGHLEIVEVLLKAGADVNAKDKHGVTPLHLAAWRGHLEIVEVLLKAGADVNAKDIQGLTPLHIAAHQGHLEIVEVLLKAGADVNAQDKSGKTPADLAADAGHEDIAEVLQKLN
